Assay results published in patent US20040018529A1, “Functional cloning of genes encoding proteins/enzymes involved in proteolytic cleavage” (priority 1999, published 2004).
Peptide text beside a SMILES is read from it. * marks the point of attachment. Cbz = O=C(OCc1ccccc1)*; CH2F = FC*

Legend:
293T cells = test: Apoptosis assay by visual inspection of transfected cells; type: cell-based, Human
Experimental: Apoptosis assays 293T cells were seeded onto 60 mm dishes at a density of 1.5×10^6 cells and, the next day, were transiently transfected with 2.5 μg plasmid DNA mixed with 15 μl lipofectamin reagent (Life Technologies, Grand Island, N.Y.). Twenty-four or 48 h after transfection, cell death was analyzed by one of the following methods. For the first assay, apoptosis was quantitated by visual inspection of cells. Cells with a shrunken, rounded, detached or blebbed appearance were scored as apoptotic. Usually 3 or more random fields were photographed and counted, and each field contained at least several hundred cells. In the case of co-transfection with green fluorescent protein (GFP)-expressing plasmid, cells were examined with an inverted fluorescent microscope, and only green cells with apoptotic features were counted. The second apoptotic assay used was the detection of nucleosomal ladder in apoptotic cells using ApoAlert LM-PCR ladder assay kit from Clontech. The procedure recommended by Clontech was followed.

[1] = target: modified caspase-3 containing the β-secretase cleavage site of APP of the Swedish version (expressed from plasmid pCBC1) (human); test: cell-based or functional assay
caspase-3 = test: Caspase-3 activity assay (ApoAlert CPP32/Caspase-3 Fluorescent Assay kit); type: cell-based, Human; conditions: 293T cells, co-transfection with pCBC1, compared with controls
Text: The protease activity of the caspase is also directly monitored in the cell extracts prepared as above. The ApoAlert® Caspase-3 assay kit, available commercially from Clontech, allows convenient fluorometric or colorimetric detection and assay of caspase-3. For example, the fluorescent kit detects the emission shift of 7-amino-4-trifluoromethyl coumarin (AFC). The AFC-substrate conjugate, DEVD-AFC, usually emits blue light (λmax=400 nm). However, upon proteolytic cleavage of the substrate by Caspase-3, free AFC fluoresces yellow-green (λmax=505 nm). Thus monitoring of emission at 505 nm in the cell extract, in relation to the uninduced control extract, allows determination of caspase activity. The activity can also be quantitated accurately and reproducibly using a standard curve established with free AFC. As described above, if there is endogenous expression of enzyme X in these cells, the caspase activity is generated in cells transfected only with pCTC1 (+) but not with pCTC1 (−).
Caspase-3 activity assay Caspase-3 activity was determined following the instructions of ApoAlert CPP32/Caspase-3 Fluorescent Assay kit (Clontech).

β-secretase = test: β-NTF assay (ELISA of medium of transfected 293T cells); type: cell-based, Human; conditions: co-transfection with the APP expression plasmid, 48 h
Experimental: β-NTF assay 293T cells were seeded onto 60 mm dishes at a density of 1.5×10^6 cells and, the next day, were transiently transfected with 2.5 μg plasmid DNA mixed with 15 μl lipofectamin reagent (Life Technologies, Grand Island, N.Y.). In the case of transfection with pAPPsw plasmid, 0.5 μg pAPPsw was mixed with 2.0 μg carrier plasmid (unrelated plasmid). Twenty-four or 48 h after transfection, medium was collected and determined for […] by ELISA method as described [Liu, 2000]

modified caspase-3 = test: Western blot analysis of processing of the modified caspase-3; type: cell-based, Human; conditions: 293T cells, co-transfection with pCBC1, compared with the control
Text: Western blot analysis Cells were collected in PBS and immediately lysed by the addition of an equal volume of 2×SDS loading buffer. After boiling and centrifugation, supernatants containing equal amount of proteins were loaded onto 14% SDS-PAGE gels. The proteins were resolved and transferred to a nylon membrane, and probed with antibodies against human caspase-3 (Santa Cruz Biotech, Santa Cruz, Calif.).

caspase-3 activity in transfected 293T cells (caspase-3 fluorescent assay), over mock-transfected cells, 24 and 48 h [1]	Molecule	cell death caused by transfection of pCBC1 plasmids (293T cells; 10 μM inhibitor added immediately after DNA transfection)	number of apoptotic cells / cell death caused by the modified caspase-3 (293T cells; co-transfection with pCBC1, compared with controls)	caspase-3 activity (caspase-3)	generation of β-NTF (β-secretase)	processed caspase-3 fragment (12 kDa) (modified caspase-3)
–	COC(=O)C[C@H](NC(=O)[C@H](C)NC(=O)[C@@H](NC(=O)OCc1ccccc1)C(C)C)C(=O)CF [Z-VAD.fmk, reference compound] (Cbz-Val-Ala-Asp(OMe)-CH2F)	significantly prevented cell death	–	–	–	–
10 fold	endogenous β-secretase activity of human embryonic kidney 293T cells (enzyme)	–	–	–	–	–
–	BACE2: BACE2 expression plasmid; BACE2 competes in vivo with β-secretase for β-site APP cleavage (protein, UniProt Q9Y5Z0 63-518, looked up) Beta-secretase 2: ALEPALASPAGAANFLAMVDNLQGDSGRGYYLEMLIGTPPQKLQILVDTGSSNFAVAGTPHSYIDTYFDTERSSTYRSKGFDVTVKYTQGSWTGFVGEDLVTIPKGFNTSFLVNIATIFESENFFLPGIKWNGILGLAYATLAKPSSSLETFFDSLVTQANIPNVFSMQMCGAGLPVAGSGTNGGSLVLGGIEPSLYKGDIWYTPIKEEWYYQIEILKLEIGGQSLNLDCREYNADKAIVDSGTTLLRLPQKVFDAVVEAVARASLIPEFSDGFWTGSQLACWTNSETPWSYFPKISIYLRDENSSRSFRITILPQLYIQPMMGAGLNYECYRFGISPSTNALVIGATVMEGFYVIFDRAQKRVGFAASPCAEIAGAAVSEISGPFSTEDVASNCVPAQSLSEPILWIVSYALMSVCGAILLVLIVLLLLPFRCQRRPRDPEVVNDESSLVRHRWK	–	significantly reduced the number of apoptotic cells	lower caspase-3 activity than the controls	significantly inhibited the generation of β-NTF	significantly reduced
–	BACE2(D110A): catalytically inactive mutant of BACE2, expressed from plasmid (protein) APELAPAPFTLPLRVAAATNRVVAPTPGPGTPAERHADGLALALEPALASPAGAANFLAMVDNLQGDSGRGYYLEMLIGTPPQKLQILVATGSSNFAVAGTPHSYIDTYFDTERSSTYRSKGFDVTVKYTQGSWTGFVGEDLVTIPKGFNTSFLVNIATIFESENFFLPGIKWNGILGLAYATLAKPSSSLETFFDSLVTQANIPNVFSMQMCGAGLPVAGSGTNGGSLVLGGIEPSLYKGDIWYTPIKEEWYYQIEILKLEIGGQSLNLDCREYNADKAIVDSGTTLLRLPQKVFDAVVEAVARASLIPEFSDGFWTGSQLACWTNSETPWSYFPKISIYLRDENSSRSFRITILPQLYIQPMMGAGLNYECYRFGISPSTNALVIGATVMEGFYVIFDRAQKRVGFAASPCAEIAGAAVSEISGPFSTEDVASNCVPAQSLSEPILWIVSYALMSVCGAILLVLIVLLLLPFRCQRRPRDPEVVNDESSLVRHRWK	–	–	lower caspase-3 activity than the controls	significantly inhibited the generation of β-NTF	significantly reduced
